Test results as given in patent US5968526A, “T cell epitopes of the major allergens from Dermatophagoides (house dust mite)” (Immulogic Pharamaceutical Corporation, priority 1995, dated 1999).

Tests used:
[1] = tested on: human IgE; assay: direct binding ELISA of IgE to mite allergen proteins and peptides; conditions: for IgE binding (ELISA): pooled human plasma, 20 patients, FIGS. 19-21; for IgE binding (ELISA), modified peptides: plasma of 19 mite-allergic patients and pool of 18, Example XV
Method: The coating antigens were removed and the wells are blocked with 0.5% gelatin in PBS, 300 μl/well for 2 hours at room temperature. Pooled human plasma (a mix of plasma samples from 20 patients that were skin test positive for commerical mite extract) was serially diluted with PBS-Tween 20 (PBS with 0.05% nonionic detergent Tween-20 Sigma, St. Louis, Mo.) and 100 μl/well a.backslash.was added and incubated overnight at 4° C. (plasma dilutions were tested in duplicate). The second antibody (biotinylated goat anti-Human IgE, 1:1000, Kirkegaard & Perry Laboratories Inc, Gaithersburg, Md.), was added at 100 μl/well for one hour at room temperature. This solution was removed and streptavidin-HRPO, 1:10000, (Southern Biotechnology Associates, Inc., Birmingham, Ala.) was then added at 100 μl/well for one hour at room temperature (all wells are washed three times with PBS-Tween between each incubation step). TMB Membrane Peroxidase Substrate system (Kirkegaard & Perry Laboratories) was freshly miced, and added at […]. The color was allowed to develop for 2-5 minutes. The reaction was stopped by the addition of […] of 1M phosphoric acid. Plates were read on a Microplate IL310 Autoreader (Biotech Instruments, Winooski, Vt.) with a 450 nm filter. The absorbance levels of duplicate wells were averaged. The order of coating antigens listed vertically in these figure legends corresponds in orDer from left to right to the coating antigens listed for each histogram.
The antigen preparation that was used as a positive control was a mixture of the four major biochemically purified mite allergens (term PMA for Purified Mite Allergen); Der f I, Der f II, Der p I and Der p II. The stock was generated at a concentration of 100 μgs of each protein per millimeter or 400 μgs total protein/ml. This preparation was used on each coated ELISA plate.

[2] = tested on: PBMC from mite-allergic patient; assay: primary T cell (PBMC) proliferation, mite-allergic patient, tritiated thymidine; type: cell-based, human; conditions: for CPM ± S.D.: medium 1071 ± 30
Method: Peripheral blood mononuclear cells (PBMC) were purified by Ficoll-Hypaque centrifugation of a peripheral blood specimen from mite-allergic patient and were assayed for proliferation in response to various antigens, i.e., affinity-purified Der p I, affinity purified Der p II, various Der p I and Der p II peptides. For assay, 5×10^4 PBMC were cultured in triplicate microwells for 7 days at 37° C. in the presence of various concentrations of antigen in 200 μl RPMI-1640 containing 5% human AB serum. Each well then received 1 μCi tritiated thymidine for 16 hours. The counts incorporated were collected onto glass fiber filters and processed for liquid scintillation counting. […] The CPM +/- standard deviation are shown. The stimulation index of each response (S.I.) is the ratio of the ^3 H-thymidine CPM incorporated by the cells in response to antigen divided by the ^3 H-thymidine CPM incorporated by cells in medium only. […] Thus, these peptides contain Der p I or Der p II T cell epitopes recognized by T cells from this particular allergic patient.

Row | Molecule | IgE binding (ELISA) [1] | S.I. ([2]; 10 μg/ml) | CPM ± S.D. ([2]; 10 μg/ml) | S.I. ([2]; 30 μg/ml) | CPM ± S.D. ([2]; 30 μg/ml) | S.I. ([2]; 100 μg/ml) | CPM ± S.D. ([2]; 100 μg/ml) | IgE binding (ELISA), modified peptides [1]
1 | biochemically purified Der f-- I: purified native group I allergen of Dermatophagoides farinae (protein) MKFVLAIASLLVLSTVYARPASIKTFEEFKKAFNKNYATVEEEEVARKNFLESLKYVEANKGAINHLSDLSLDEFKNRYLMSAEAFEQLKTQFDLNAETSACRINSVNVPSELDLRSLRTVTPIRMQGGCGSCWAFSGVAATESAYLAYRNTSLDLSEQELVDCASQHGCHGDTIPRGIEYIQQNGVVEERSYPYVAREQRCRRPNSQHYGISNYCQIYPPDVKQIREALTQTHTAIAVIIGIKDLRAFQHYDGRTIIQHDNGYQPNYHAVNIVGYGSTQGDDYWIVRNSWDTTWGDSGYGYFQAGNNLMMIEQYPYVVIM | binding |  |  |  |  |  |  | 
2 | biochemically purified Der f II: purified native group II allergen of Dermatophagoides farinae (protein) DQVDVKDCANNEIKKVMVDGCHGSDPCIIHRGKPFTLEALFDANQNTKTAKTEIKASLDGLEIDVPGIDTNACHFMKCPLVKGQQYDAKYTWNVPKIAPKSENVVVTVKLVGDNGVLACAIATHAKIRD | binding |  |  |  |  |  |  | 
3 | Der p II: affinity purified native group II allergen of Dermatophagoides pteronyssinus (protein) MMYKILCLSLLVAAVARDQVDVKDCANHEIKKVLVPGCHGSEPCIIHRGKPFQLEAVFEANQNTKTAKIEIKASIDGLEVDVPGIDPNACHYMKCPLVKGQQYDIKYTWNVPKIAPKSENVVVTVKVMGDDGVLACAIATHAKIRD | good binding | 1.0 | 1113 ± 35 CPM | 2.0 | 2104 ± 43 CPM | 1.0 | 1057 ± 27 CPM | All samples did contain IgE
4 | Der p I: affinity purified native group I allergen of Dermatophagoides pteronyssinus (protein) KNRFLMSAEAFEHLKTQFDLNAETNACSINGNAPAEIDLRQMRTVTPIRMQGGCGSCWAFSGVAATESAYLAHRNQSLDLAEQELVDCASQHGCHGDTIPRGIEYIQHNGVVQESYYRYVAREQSCRRPNAQRFGISNYCQIYPPNANKIREALAQTHSAIAVIIGIKDLDAFRHYDGRTIIQRDNGYQPNYHAVNIVGYSNAQGVDYWIVRNSWDTNWGDNGYGYFAANIDLMMIEEYPYVVIL |  | 0.9 | 920 ± 15 CPM | 2.0 | 2122 ± 93 CPM | 1.4 | 1492 ± 13 CPM | All samples did contain IgE
